In US20210230272A1:
Blank lines part the entries; values can stand above or below the substance they belong to.

How the values were obtained:
human PD-L1 (human) [1] = biological target: human PD-L1 (human) (UniProt Q9NZQ7); experiment: ELISA, PD-L1 coated; control of LB319
human PD-L1 (human) [2] = biological target: human PD-L1 (human) (UniProt Q9NZQ7); experiment: ELISA, PD-L1 coated; control of LB320
[3] = biological target: IL10 antibody (Sino biological, Cat #SEKA10947); experiment: ELISA, same conditions as the antigen-coated ELISA
mice CLDN18.2 (mice) = mice CLDN18.2 (mice) (UniProt P56857); experiment: cell ELISA, mCLDN18.2+ cells
human CLDN18.2 (human) [4] = biological target: human CLDN18.2 (human) (UniProt P56856); experiment: flow cytometry, CF488 labeled antibody 1 µg/ml, hCLDN18.2+ cells
human CLDN18.2 (human) [5] = biological target: human CLDN18.2 (human) (UniProt P56856); experiment: flow cytometry, CF633 labeled antibody 1 µg/ml, hCLDN18.2+ cells
human CLDN18.2 (human) [6] = biological target: human CLDN18.2 (human) (UniProt P56856); experiment: flow cytometry, CF488 labeled antibody 10 µg/ml, hCLDN18.2+ cells
human CLDN18.2 (human) [7] = biological target: human CLDN18.2 (human) (UniProt P56856); experiment: flow cytometry, CF633 labeled antibody 10 µg/ml, hCLDN18.2+ cells

Sequence of human PD-L1 (human) (Q9NZQ7 19-238): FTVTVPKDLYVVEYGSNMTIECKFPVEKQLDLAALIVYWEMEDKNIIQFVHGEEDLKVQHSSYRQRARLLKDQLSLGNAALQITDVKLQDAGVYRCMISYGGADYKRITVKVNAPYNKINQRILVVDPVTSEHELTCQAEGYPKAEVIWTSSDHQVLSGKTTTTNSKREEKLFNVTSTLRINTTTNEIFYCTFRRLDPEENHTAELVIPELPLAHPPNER

EC50 (human PD-L1 (human) [1]): 0.072 nM | EC50 (human PD-L1 (human) [2]): 0.072 nM
Substance: LB318 (Durvalumab) (antibody)

EC50 [3]: 4.53 nM
Substance: IL10 (Peprotech, Cat #: 200-10) (from UniProt P22301 19-178) (ligand)

Emax (mice CLDN18.2 (mice)): 0.19 | Binding value (FACS fluorescence intensity) (human CLDN18.2 (human) [4]): 1750 | Binding value (FACS fluorescence intensity) (human CLDN18.2 (human) [5]): 23 | Binding value (FACS fluorescence intensity) (human CLDN18.2 (human) [6]): 3480 | Binding value (FACS fluorescence intensity) (human CLDN18.2 (human) [7]): 23.2
Substance: Neg IgG (antibody)
